The values that follow come from paper PMC2873508.

Some results are limits rather than exact numbers.

The target of assay [1] is feline CD134 on MCC cells (feline).
The target in assay [2] is CD134 on MYA-1 cells (not stated (endogenous in MYA-1 cells)).
The target is the same in assay [3]. The source holds these as a separate data set.
The target of assay [4] is FIV GL8 Env (molecular clone 414) (feline immunodeficiency virus (FIV), strain GL8).
For assay [5], the target named is Chimaeric GL8 (ABSN) Env with the V4-V5 region of variant B14 (feline immunodeficiency virus (FIV), strain GL8 | feline immunodeficiency virus (FIV), strain GL8, in vivo variant).

Regarding “FIV Env of A613 variant B14 (natural protein)”, the ratio of luciferase counts (CPM) of HIV(FIV) pseudotype infection on MCC cells with feline CD134 divided by counts on MCC cells with the feCRD1 chimera (feline CRD1 x human CD134); dependency on CRD2 in assay [1] turned out to be 10. The inhibition of HIV(FIV) pseudotype infection of MYA-1 cells by anti-CD134 antibody 7D6 (series 0.4 to 50 μg/ml; reduced by 90% at 0.4 μg/ml) (% reduction of infection) in assay [2] is over 99. For the same substance, the percent infection of MYA-1 cells by HIV(FIV) pseudotype with anti-CD134 antibody, relative to no antagonist (Fig. 7A) in assay [3] came out at 19.5 % infection. On to “FIV Env of A613 variant B23 (natural protein)”, for which the ratio of luciferase counts (CPM) of HIV(FIV) pseudotype infection on MCC cells with feline CD134 divided by counts on MCC cells with the feCRD1 chimera (feline CRD1 x human CD134); dependency on CRD2 in assay [1] is 223. On to soluble Fc-CD134 (Fc fusion), for which the percent infection of MYA-1 cells by HIV(FIV) pseudotype (Env with cell CD134) with sFc-CD134, relative to no antagonist (Fig. 7B) in assay [4] turned out to be 18.4 % infection; in assay [5] it was 65.1 % infection. Take FIV B2542 Env (natural protein): the ratio of luciferase counts (CPM) of HIV(FIV) pseudotype infection on MCC cells with feline CD134 divided by counts on MCC cells with the feCRD1 chimera (feline CRD1 x human CD134); dependency on CRD2 in assay [1] was determined as 5.
